Data published in the supplement of paper PMC10065799, “High-throughput profiling of sequence recognition by tyrosine kinases and SH2 domains using bacterial peptide display” (eLife, 2023).

Columns and labels:
[1] = test system: AncSZ; experiment: phosphorylation enrichment, bacterial display (enrichment ratio); higher = better substrate or ligand; peptides without Tyr show the background
[2] = target: EPHB1 (UniProt P54762); experiment: as above
[3] = target: EPHB2 (UniProt P29323); experiment: as above
[4] = target: FGFR1 (UniProt P11362); experiment: as above
[5] = target: FGFR3 (UniProt P22607); experiment: as above
[6] = test system: Fer (mouse); experiment: as above
[7] = target: Fes (UniProt P07332); experiment: as above
[8] = target: Fyn (UniProt P06241); experiment: as above
[9] = target: Hck (UniProt P08631); experiment: as above
[10] = target: Jak2 (UniProt O60674); experiment: as above
[11] = target: MERTK (UniProt Q12866); experiment: as above
[12] = test system: c-Abl (mouse); experiment: as above
[13] = test system: c-Src; experiment: as above
[14] = target: Grb2 SH2 (UniProt P62993); experiment: SH2 binding enrichment of the phosphorylated peptide, bacterial display (enrichment ratio); higher = better substrate or ligand; peptides without Tyr show the background
[15] = target: SHP2-C SH2; experiment: as above
[16] = target: c-Src SH2; experiment: as above
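Throughout, for SH2 binding enrichment of the phosphorylated peptide, bacterial display: peptide library displayed on the E. coli surface as eCPX fusions, selected cells deep-sequenced, score is each peptide's frequency after selection divided by its frequency in the input.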
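Throughout, for phosphorylation enrichment, bacterial display: 11-residue human phosphosite peptides and single-mutation variants displayed on the E. coli surface, counted by deep sequencing, each peptide's frequency after selection divided by its frequency in the unselected input library; frequency after pTyr selection over input frequency; kinase dosed for 20-30% of maximal phosphorylation in three min.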

Sequence of Fes (P07332 whole entry, looked up): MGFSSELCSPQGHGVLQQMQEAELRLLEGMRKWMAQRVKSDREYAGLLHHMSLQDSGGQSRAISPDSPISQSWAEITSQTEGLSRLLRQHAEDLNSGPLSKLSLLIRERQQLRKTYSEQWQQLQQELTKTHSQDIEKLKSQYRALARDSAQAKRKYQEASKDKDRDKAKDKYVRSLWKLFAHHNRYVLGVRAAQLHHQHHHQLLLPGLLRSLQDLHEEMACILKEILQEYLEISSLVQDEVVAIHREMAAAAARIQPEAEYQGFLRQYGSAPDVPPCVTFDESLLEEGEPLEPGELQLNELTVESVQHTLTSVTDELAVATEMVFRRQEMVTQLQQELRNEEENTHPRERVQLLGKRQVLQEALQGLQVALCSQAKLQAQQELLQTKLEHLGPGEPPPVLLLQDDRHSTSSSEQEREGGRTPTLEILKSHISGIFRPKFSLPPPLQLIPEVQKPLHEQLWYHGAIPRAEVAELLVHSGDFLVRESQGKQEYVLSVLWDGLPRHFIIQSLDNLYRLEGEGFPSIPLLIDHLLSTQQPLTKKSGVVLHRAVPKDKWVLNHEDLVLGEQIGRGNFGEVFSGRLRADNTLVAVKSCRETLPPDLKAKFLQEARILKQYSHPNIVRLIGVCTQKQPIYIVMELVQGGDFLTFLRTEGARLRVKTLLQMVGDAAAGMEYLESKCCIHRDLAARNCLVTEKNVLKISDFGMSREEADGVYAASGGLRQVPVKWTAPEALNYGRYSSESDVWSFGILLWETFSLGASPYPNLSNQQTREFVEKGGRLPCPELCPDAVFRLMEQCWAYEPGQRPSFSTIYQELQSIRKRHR
Sequence of MERTK (Q12866 whole entry, looked up): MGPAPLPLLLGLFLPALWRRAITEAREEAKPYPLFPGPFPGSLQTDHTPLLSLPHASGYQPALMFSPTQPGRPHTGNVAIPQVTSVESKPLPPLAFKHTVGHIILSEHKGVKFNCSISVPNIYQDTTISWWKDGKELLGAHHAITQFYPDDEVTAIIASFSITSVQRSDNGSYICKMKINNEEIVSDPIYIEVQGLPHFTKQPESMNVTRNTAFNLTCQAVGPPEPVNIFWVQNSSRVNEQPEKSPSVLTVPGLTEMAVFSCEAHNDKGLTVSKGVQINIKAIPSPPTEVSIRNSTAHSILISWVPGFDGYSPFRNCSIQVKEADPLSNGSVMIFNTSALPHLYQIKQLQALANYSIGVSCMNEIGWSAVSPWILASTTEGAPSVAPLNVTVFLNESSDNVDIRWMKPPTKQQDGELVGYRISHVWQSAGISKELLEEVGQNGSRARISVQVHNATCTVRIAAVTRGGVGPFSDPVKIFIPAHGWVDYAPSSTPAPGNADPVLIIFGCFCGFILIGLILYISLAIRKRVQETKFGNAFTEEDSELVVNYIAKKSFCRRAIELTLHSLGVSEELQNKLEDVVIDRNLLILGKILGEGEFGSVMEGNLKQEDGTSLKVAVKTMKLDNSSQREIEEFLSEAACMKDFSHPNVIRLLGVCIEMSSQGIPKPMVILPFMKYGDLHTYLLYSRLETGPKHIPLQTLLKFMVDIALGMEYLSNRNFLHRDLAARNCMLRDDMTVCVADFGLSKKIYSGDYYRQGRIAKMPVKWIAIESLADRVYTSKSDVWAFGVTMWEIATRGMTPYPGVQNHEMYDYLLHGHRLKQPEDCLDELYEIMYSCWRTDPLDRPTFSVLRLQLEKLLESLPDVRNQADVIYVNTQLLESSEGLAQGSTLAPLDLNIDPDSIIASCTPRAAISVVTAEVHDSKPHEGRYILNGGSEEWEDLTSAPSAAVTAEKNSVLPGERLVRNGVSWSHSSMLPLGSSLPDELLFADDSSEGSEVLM
Sequence of Fyn (P06241 whole entry, looked up): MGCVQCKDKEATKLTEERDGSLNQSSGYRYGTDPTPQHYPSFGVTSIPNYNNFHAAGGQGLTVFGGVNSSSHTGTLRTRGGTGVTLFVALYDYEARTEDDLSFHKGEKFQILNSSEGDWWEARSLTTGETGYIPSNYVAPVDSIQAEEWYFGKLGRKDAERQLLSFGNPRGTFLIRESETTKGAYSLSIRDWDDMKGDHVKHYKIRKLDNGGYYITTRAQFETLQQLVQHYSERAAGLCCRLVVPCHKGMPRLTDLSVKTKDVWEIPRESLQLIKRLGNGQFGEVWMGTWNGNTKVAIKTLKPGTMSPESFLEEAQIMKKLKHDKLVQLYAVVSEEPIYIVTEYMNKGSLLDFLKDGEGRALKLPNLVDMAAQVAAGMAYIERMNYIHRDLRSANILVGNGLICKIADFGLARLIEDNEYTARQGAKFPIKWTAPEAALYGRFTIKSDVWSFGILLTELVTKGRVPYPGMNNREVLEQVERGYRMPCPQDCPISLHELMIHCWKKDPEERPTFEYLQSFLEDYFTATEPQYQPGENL
Sequence of Jak2 (O60674 whole entry, looked up): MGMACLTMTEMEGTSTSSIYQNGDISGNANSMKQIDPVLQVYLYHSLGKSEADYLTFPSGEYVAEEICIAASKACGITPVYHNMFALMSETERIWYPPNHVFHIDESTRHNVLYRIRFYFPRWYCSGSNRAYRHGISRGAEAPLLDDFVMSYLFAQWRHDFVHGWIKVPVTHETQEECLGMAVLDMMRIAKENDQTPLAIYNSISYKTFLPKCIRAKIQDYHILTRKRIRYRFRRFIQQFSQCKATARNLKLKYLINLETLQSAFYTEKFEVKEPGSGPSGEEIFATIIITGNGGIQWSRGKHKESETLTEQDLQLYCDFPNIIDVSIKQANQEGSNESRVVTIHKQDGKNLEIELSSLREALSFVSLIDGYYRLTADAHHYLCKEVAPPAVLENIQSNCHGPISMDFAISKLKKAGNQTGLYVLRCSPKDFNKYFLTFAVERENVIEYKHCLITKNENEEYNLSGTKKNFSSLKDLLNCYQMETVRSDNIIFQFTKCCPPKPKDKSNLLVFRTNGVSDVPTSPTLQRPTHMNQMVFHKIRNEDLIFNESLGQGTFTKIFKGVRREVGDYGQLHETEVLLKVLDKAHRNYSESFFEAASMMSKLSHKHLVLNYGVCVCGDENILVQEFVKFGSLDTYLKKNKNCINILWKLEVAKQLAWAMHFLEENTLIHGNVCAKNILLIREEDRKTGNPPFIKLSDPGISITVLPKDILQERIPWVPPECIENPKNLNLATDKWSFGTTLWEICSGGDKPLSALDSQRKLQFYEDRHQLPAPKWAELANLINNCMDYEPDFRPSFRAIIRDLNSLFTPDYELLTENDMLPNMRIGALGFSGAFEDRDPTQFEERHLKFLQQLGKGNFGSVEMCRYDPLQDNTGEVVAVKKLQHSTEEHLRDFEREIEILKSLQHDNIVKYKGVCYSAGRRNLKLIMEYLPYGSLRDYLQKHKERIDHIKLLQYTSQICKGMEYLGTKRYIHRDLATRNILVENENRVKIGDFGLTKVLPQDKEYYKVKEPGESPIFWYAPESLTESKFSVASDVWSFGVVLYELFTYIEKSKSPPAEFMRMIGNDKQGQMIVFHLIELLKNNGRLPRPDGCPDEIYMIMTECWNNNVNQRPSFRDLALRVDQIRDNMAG
Sequence of Grb2 SH2 (P62993 whole entry, looked up): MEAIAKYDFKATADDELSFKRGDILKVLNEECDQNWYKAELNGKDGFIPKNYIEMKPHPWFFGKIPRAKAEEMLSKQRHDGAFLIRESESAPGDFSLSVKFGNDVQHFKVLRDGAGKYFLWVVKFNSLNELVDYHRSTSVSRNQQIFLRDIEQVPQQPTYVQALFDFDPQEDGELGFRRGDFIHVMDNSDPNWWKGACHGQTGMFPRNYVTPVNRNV
Sequence of Hck (P08631 whole entry, looked up): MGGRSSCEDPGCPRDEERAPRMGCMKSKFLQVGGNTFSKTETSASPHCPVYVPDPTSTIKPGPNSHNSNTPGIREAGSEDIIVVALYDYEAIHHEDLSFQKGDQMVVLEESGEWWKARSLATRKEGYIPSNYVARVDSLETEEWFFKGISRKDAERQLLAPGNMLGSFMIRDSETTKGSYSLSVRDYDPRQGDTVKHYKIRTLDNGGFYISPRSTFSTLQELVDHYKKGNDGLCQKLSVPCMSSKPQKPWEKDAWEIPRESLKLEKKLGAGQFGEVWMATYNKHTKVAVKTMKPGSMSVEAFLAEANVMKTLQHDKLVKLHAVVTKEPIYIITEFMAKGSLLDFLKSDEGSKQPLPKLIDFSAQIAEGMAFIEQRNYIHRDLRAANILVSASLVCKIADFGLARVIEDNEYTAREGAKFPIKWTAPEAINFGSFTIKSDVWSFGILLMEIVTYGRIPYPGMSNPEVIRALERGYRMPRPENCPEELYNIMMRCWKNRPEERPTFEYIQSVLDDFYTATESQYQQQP
Sequence of FGFR1 (P11362 whole entry, looked up): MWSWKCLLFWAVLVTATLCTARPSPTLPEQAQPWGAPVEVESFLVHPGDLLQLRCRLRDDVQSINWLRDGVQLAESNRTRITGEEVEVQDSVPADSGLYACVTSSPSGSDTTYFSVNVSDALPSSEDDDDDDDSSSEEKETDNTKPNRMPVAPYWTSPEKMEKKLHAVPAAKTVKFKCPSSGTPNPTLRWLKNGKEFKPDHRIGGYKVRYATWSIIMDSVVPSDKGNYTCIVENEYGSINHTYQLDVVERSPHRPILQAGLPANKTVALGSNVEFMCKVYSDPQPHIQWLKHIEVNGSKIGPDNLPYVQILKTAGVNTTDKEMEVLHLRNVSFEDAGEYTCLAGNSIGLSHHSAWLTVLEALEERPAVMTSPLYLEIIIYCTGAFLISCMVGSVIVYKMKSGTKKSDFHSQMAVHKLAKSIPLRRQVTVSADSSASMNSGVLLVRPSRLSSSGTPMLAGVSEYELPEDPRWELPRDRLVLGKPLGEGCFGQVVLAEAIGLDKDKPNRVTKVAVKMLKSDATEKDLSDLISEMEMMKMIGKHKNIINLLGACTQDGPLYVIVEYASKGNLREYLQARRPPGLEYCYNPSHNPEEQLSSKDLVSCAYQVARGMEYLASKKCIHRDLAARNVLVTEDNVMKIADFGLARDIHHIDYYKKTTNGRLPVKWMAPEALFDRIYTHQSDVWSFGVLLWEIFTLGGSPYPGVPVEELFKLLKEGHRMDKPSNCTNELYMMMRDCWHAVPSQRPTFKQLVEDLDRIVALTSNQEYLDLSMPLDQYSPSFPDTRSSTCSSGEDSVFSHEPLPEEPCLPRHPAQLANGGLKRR

Sequence | phosphorylation enrichment [1] | phosphorylation enrichment [2] | phosphorylation enrichment [3] | phosphorylation enrichment [4] | phosphorylation enrichment [5] | phosphorylation enrichment [6] | phosphorylation enrichment [7] | phosphorylation enrichment [8] | phosphorylation enrichment [9] | phosphorylation enrichment [10] | phosphorylation enrichment [11] | phosphorylation enrichment [12] | phosphorylation enrichment [13] | SH2 binding enrichment [14] | SH2 binding enrichment [15] | SH2 binding enrichment [16]
CTTIHYHYMCN [TP53_Y234_N235H] | 0.964 | 0.551 | 0.425 | 0.568 | 0.667 | 0.523 | 0.963 | 0.561 | 0.551 | 0.668 | 0.446 | 0.661 | 0.414 | 1.33 | 5.53 | 2.73
CTTIHYSFMCN [TP53_Y234_N235S_YF] | 1.08 | 0.568 | 0.572 | 0.636 | 0.666 | 0.942 | 1 | 0.563 | 0.559 | 0.734 | 0.843 | 0.828 | 0.544 | 1.88 | 4.43 | 2.62
VASIFYTLVIP [OR8K3_Y277] | 1.83 | 0.978 | 0.769 | 1.72 | 1.63 | 2.79 | 1.49 | 0.502 | 0.661 | 1.45 | 5.43 | 0.882 | 0.945 | 1.22 | 1.51 | 1.01
ETLLFYGCRRS [POR_Y564_YF] | 0.749 | 0.468 | 0.458 | 0.621 | 0.445 | 0.465 | 0.675 | 0.43 | 0.463 | 0.659 | 0.424 | 0.82 | 0.563 | 0.66 | 0.582 | 0.299
LRYEVYGGENE [STOX1_Y610] | 1.33 | 0.765 | 0.729 | 0.631 | 0.692 | 0.623 | 1.25 | 0.615 | 0.828 | 1.09 | 0.499 | 0.775 | 0.77 | 0.677 | 0.56 | 1.64
KDHPDYKYQAR [SOX10_Y171_P175A] | 0.606 | 0.427 | 0.416 | 0.416 | 0.563 | 0.448 | 0.696 | 0.434 | 0.496 | 0.58 | 0.39 | 0.609 | 0.415 | 0.895 | 0.738 | 0.476
LKEIHYPPFTD [ALDH3B2_Y362_YF] | 0.819 | 0.425 | 0.541 | 0.474 | 0.555 | 0.413 | 0.9 | 0.437 | 0.437 | 0.659 | 0.329 | 0.559 | 0.401 | 0.922 | 0.644 | 0.505
LTFDEYRNNSQ [ANXA3_Y216_I219N] | 0.762 | 0.431 | 0.682 | 0.573 | 0.632 | 0.553 | 1.24 | 0.675 | 0.443 | 1.38 | 0.4 | 1.13 | 0.753 | 0.654 | 0.616 | 0.417
HISGVYKLPPD [ANGPTL7_Y145_R140H] | 1.79 | 0.556 | 0.6 | 0.585 | 0.67 | 0.618 | 1.33 | 3.26 | 0.718 | 1 | 0.725 | 0.697 | 2.3 | 0.957 | 0.925 | 0.459
FSNPAYFVLEG [INPPL1_Y986_N982S_YF] | 1.01 | 0.642 | 0.548 | 6.43 | 4.24 | 0.564 | 0.895 | 0.416 | 0.451 | 3.86 | 3.43 | 0.865 | 0.809 | 0.928 | 0.973 | 1.85
ETCLAYREKRI [TEKT1_Y118] | 1.07 | 0.466 | 0.519 | 0.61 | 0.558 | 0.371 | 0.956 | 0.536 | 0.49 | 0.693 | 0.508 | 0.503 | 0.423 | 0.948 | 0.742 | 0.611
LNEWHYGGLTG [PGAM2_Y92_R90W] | 0.74 | 0.444 | 0.452 | 0.58 | 0.891 | 0.636 | 1.12 | 0.662 | 0.738 | 0.84 | 0.365 | 0.626 | 0.52 | 0.723 | 1.29 | 0.682
SLVGCYNLTFM [HS6ST3_Y323] | 1.42 | 0.694 | 0.868 | 0.589 | 0.95 | 1.29 | 1.56 | 0.694 | 0.745 | 1.39 | 0.498 | 1.12 | 0.794 | 0.599 | 0.553 | 0.432
VGGRIYIDDAL [PKLR_Y218_G222A] | 0.86 | 0.51 | 0.497 | 0.542 | 0.612 | 0.547 | 1.06 | 0.462 | 0.486 | 0.767 | 0.402 | 0.737 | 0.419 | 0.694 | 0.772 | 0.415
RMDGTYACSFT [FLNB_Y704_YF] | 1.3 | 1.03 | 0.741 | 0.836 | 0.812 | 0.932 | 1.16 | 2.61 | 2.43 | 0.806 | 0.702 | 1.34 | 2.31 | 0.893 | 0.619 | 0.557
KGELCYMHSRV [ABCD1_Y281_R280C] | 0.813 | 0.597 | 0.581 | 0.479 | 0.682 | 0.449 | 0.757 | 0.505 | 0.485 | 0.568 | 0.563 | 0.43 | 0.402 | 1.31 | 0.883 | 0.632
VNTMLYEKFTF [TEK_Y1108_T1106M_YF] | 1.29 | 6.33 | 4.34 | 0.621 | 0.697 | 13.7 | 1.22 | 5.93 | 6.73 | 0.917 | 8.45 | 2.38 | 6.07 | 1.01 | 0.736 | 0.71
LLREWYVQDPY [SIX3_Y225_L226V] | 1.18 | 0.598 | 0.675 | 0.597 | 0.771 | 0.566 | 1.05 | 0.531 | 0.328 | 0.798 | 0.44 | 0.674 | 0.641 | 1.05 | 0.856 | 1.36
RLLRGYDQLAF [HLA-C_Y137_S140L_YF] | 0.898 | 0.464 | 0.479 | 0.415 | 0.639 | 0.498 | 0.838 | 0.435 | 0.554 | 1.08 | 0.495 | 0.926 | 0.62 | 1.16 | 0.968 | 4.73
TGGLEYIVPLM [CLCN4_Y548] | 2.14 | 0.797 | 0.787 | 3 | 2.29 | 0.379 | 0.965 | 0.436 | 0.42 | 2.32 | 0.364 | 0.937 | 0.417 | 0.869 | 0.675 | 0.52
RHPREYQDLLN [DES_Y388_L385P] | 0.668 | 0.537 | 0.569 | 0.377 | 0.572 | 0.327 | 0.545 | 0.698 | 0.463 | 0.785 | 0.41 | 0.487 | 0.464 | 1.06 | 0.906 | 1.29
HAEERYGKELV [PSTPIP1_Y53_Q48H] | 1.26 | 0.881 | 0.806 | 1.09 | 1.02 | 0.732 | 1.26 | 0.614 | 1.02 | 1.06 | 0.382 | 0.688 | 0.569 | 0.755 | 0.7 | 0.362
FAELVYTGFWH [ASS1_Y322] | 1.54 | 2.21 | 2.59 | 2.22 | 1.85 | 6.97 | 1.41 | 8.14 | 6 | 1.67 | 6.23 | 8.78 | 7.01 | 0.87 | 0.698 | 0.524
TYGVLYKARNK [CDK2_Y19_V18L] | 0.539 | 0.398 | 0.532 | 0.394 | 0.483 | 0.438 | 0.691 | 2.88 | 2.86 | 0.565 | 0.689 | 0.519 | 3.29 | 0.962 | 0.624 | 0.406
GGDVIYKGFED [NFU1_Y194] | 0.871 | 0.425 | 0.491 | 0.499 | 0.629 | 0.395 | 0.887 | 3.25 | 0.951 | 0.924 | 0.466 | 0.663 | 2.75 | 0.822 | 0.625 | 0.427
IRQGHYESLKE [MTR_Y921_D919G] | 0.573 | 0.392 | 0.34 | 0.419 | 0.567 | 0.652 | 0.768 | 0.466 | 0.519 | 0.85 | 0.457 | 0.443 | 0.45 | 0.951 | 0.765 | 5.48
HEVHIYENSGA [ARPC1B_Y35_K37N] | 1.44 | 1.38 | 1.28 | 0.703 | 0.892 | 1.26 | 2.27 | 1.04 | 1.62 | 1.31 | 0.826 | 1.32 | 0.865 | 12.4 | 1.03 | 6.64
CGASGYSATST [CERT1_Y143_S138C] | 1.02 | 0.55 | 0.706 | 0.457 | 0.872 | 0.675 | 1.08 | 0.476 | 0.51 | 1.06 | 0.523 | 0.746 | 0.489 | 0.741 | 0.756 | 0.556
LQKPMYEVQWK [KIT_Y553] | 1.29 | 2.63 | 0.912 | 0.851 | 1.49 | 0.83 | 1.32 | 0.81 | 0.788 | 1.42 | 1.28 | 1.36 | 0.617 | 0.771 | 0.633 | 0.522
